Measurements: patent US5360895A, “Derivatized gold clusters and antibody-gold cluster conjugates” (priority 1992, dated 1994)
Read-outs that look alike come from different tables or passages of the source.

Experiments:
[1] = Thermal stability of gold clusters; type: physicochemical; settings: 100° C.
[2] = Biodistribution of radioactive gold clusters (no antibody) in healthy mice; type: in vivo
Procedure: Typically the blood had 2.8%, the spleen 0.4%, the stomach 0.4%, kidney 5.1%, bone 2.5%, gut and feces 3.3%, liver 19.3% and, carcass 13.7% of the injected amount after 24 hours. These numbers are % counts per organ normalized to 25 gm mice.

[3] = Toxicity of radioactive gold clusters (no antibody) in healthy mice; settings: tail vein; 7.8, 12.6 or 24 μg gold metal; 2 or 24 hours
Procedure: The folowing in vivo tests in mice assess both biodistribution with time and toxicity.
Various doses of gold cluster were injected into the tail vein of healthy mice: cluster containing 7.8 μg of gold metal into one group, 12.6 μg into another and 24 μg into the third. Each group consisted of 6 animals, for a total of 18 mice. Three mice from each group were sacrificed after 2 hours and the remaining 3 were terminated after 24 hours in order to determine the biodistribution in different organs as a function of time.

[4] = test system: melanoma cells (WM164)
Procedure: (§5) The 17-1A Fab' fragment-(radioactive gold)-undecagold cluster conjugate was incubated in vitro with tumor cells (LS180- a cell culture of human colon carcinoma) and non tumor cells (WM164 - a cell culture of melanoma as control) and the radioactivity of the gold was used to assay binding.
(§6) bound to cells after incubation and washing.
(§7) entry is an average (+ s.d.) of 2 samples.

[5] = test system: human colon carcinoma cells (LS180)
Procedure: as §5, §6, §7

[6] = Biodistribution of radioactive gold clusters (no antibody) in healthy mice; type: in vivo; settings: after 2 hours, tail vein
[7] = test system: melanoma cells (WM164); assay: In vitro cell binding of 17-1A-Au11 conjugates, control melanoma (radioactivity of gold); settings: for % bound to control cells (melanoma): percent of applied radioactive gold bound after incubation and washing, average ± s.d. of 2 samples
Procedure: as §5, §6, §7

[8] = test system: human colon carcinoma cells; assay: Radioimmunoassay, cell binding of gold labeled F(ab')2 to cultured human colon carcinoma cells; type: cell-based; settings: 17-1A; in words
Procedure: (§1) Both of these methods were used to prepare F(ab')2 -Au11 conjugates using 17-1A mouse monoclonal antibody which is specific for human colorectal tumors. After preparation, this labeled antibody was tested to find if its immunoreactivity had been altered. A radioimmunoassay was performed using cell binding to cultured human colon carcinoma cells and to melanoma cells (the control).

[9] = test system: human colon carcinoma cells (LS180); assay: In vitro cell binding of 17-1A-Au11 conjugates, human colon carcinoma (radioactivity of gold); settings: for % bound to tumor cells (human colon carcinoma): percent of applied radioactive gold bound after incubation and washing, average ± s.d. of 2 samples
Procedure: as §5, §6, §7

[10] = test system: melanoma cells; assay: Radioimmunoassay, cell binding of gold labeled F(ab')2 to melanoma cells (control); type: cell-based; settings: 17-1A; in words
Procedure: as §1

[11] = test system: human colon carcinoma; assay: In vivo biodistribution of radiogold cluster 17-1A conjugates in nude mice bearing human tumors; settings: 24 hr after injection; for blood, % of injected dose per gram of tissue / bone, % of injected dose per gram of tissue / gut, % of injected dose per gram of tissue / heart, % of injected dose per gram of tissue / kidneys, % of injected dose per gram of tissue / liver, % of injected dose per gram of tissue / lung, % of injected dose per gram of tissue / muscle, % of injected dose per gram of tissue / spleen, % of injected dose per gram of tissue / stomach, % of injected dose per gram of tissue / tumor, % of injected dose per gram of tissue: normalized to 25 g animals
Procedure: Nude mice bearing human colon carcinoma or melanoma tumors were injected with radioactive gold clusters conjugated to anti-tumor antibodies. Two antibodies were gold labeled, one (17-1A) against the human colon carcinoma and another non-relevant antibody, H2 4B5 anti-influenza. The non-relevant tumor (melanoma) and non-relevant gold conjugated antibody (H2 4B5) served as controls. A total of 53 mice were used. In order to assess the efficacy of using gold labeled Fab' versus whole IgG, both types of antibody were labeled and tested. In addition, two crosslinking arms between the gold cluster and antibody were used, one, as described in the preparation example, was N-methoxycarbonyl maleimide (NMCM), whereas the other was n-maleimidobenzoyl-N-hydroxysuccinimide ester (MBS), This was to test if a different covalent crosslinker between the gold cluster and antibody or antibody fragment yielded conjugates with different stabilities or body distributions in vivo.
In vivo biodistribution of radiogold cluster 17-1A conjugates. Data,
after injection is expressed in % of injected dose per gram of tissue.
Tumor to normal tissue ratios are given in parentheses. Three or four
sample were averaged; normalized to 25 g animals.

[12] = test system: colorectal carcinoma cells; assay: In vitro test of Fab'-Au11 with colorectal carcinoma cells, radiolabeled second antibody; type: cell-based, human
Procedure: (§2) The antibody used is "17-1A", commercially available from Centocor, Inc. These antibody-cluster conjugates were also assayed by electron microscopy, high pressure liquid chromatography, and spectroscopy and appeared to follow the normal course of results indicated in Examples 4 and 5. The number of gold clusters bound to each Fab' in this example was 0.7-1.0.
(§3) The in vitro test involved incubating the Fab'-Au11 with either colorectal carcinoma cells or a control melanoma for one hour, centrifugation to isolate the cell-bound antibody, and assay of the bound antibody with a second antibody [to F(ab')2 ] which was itself radiolabeled with iodine. A titer curve was produced.

[13] = test system: control melanoma; assay: In vitro test of Fab'-Au11 with control melanoma, radiolabeled second antibody; type: cell-based; settings: preliminary in vitro testing, 17-1A
Procedure: as §2, §3

[14] = test system: melanoma cells (cell line WM 164); assay: Silver enhanced staining of control melanoma cells, light microscope; type: cell-based; settings: approximately 45 minutes developer
Procedure: (§4) Assuming each call has approx. 10^6 antibody binding sites, a ten fold molar excess over this of undecagold cluster-labeled 17-1A monoclonal antibody was applied. Cells were incubated at room temperature for one hour on a wrist shaker device. The cells were then centrifuged at 1100 rpm for 5 minutes and the supernatent discarded. Additional buffer was added to resuspend the cells and after 3 minutes they were centrifuged again. Three of these washes were done. As a control, melanoma cells (cell line WM 164) were also prepared in a similar fashion. Cells were concentrated onto glass microscope slides using a Cytospin device. […] UV exposure for 5 minutes prior to development enhanced this color.

[15] = test system: Human colon carcinoma cells (cell line LS180); assay: Silver enhanced staining of human colon carcinoma cells, light microscope; type: cell-based; settings: approximately 45 minutes developer
Procedure: Human colon carcinoma cells (cell line LS180) were grown in tissue culture media. The cells were harvested with a brief trypsin treatment and centrifuged. They were then resuspended in phosphate buffered saline with 5% IgG free horse serum.
as §4

[16] = 24 hours, % counts per organ normalized to 25 gm mice

Molecule	% bound to control cells (melanoma) [7] [%]	% bound to tumor cells (human colon carcinoma) [9] [%]	Tumor to normal tissue ratio, blood [11]	Tumor to normal tissue ratio, bone [11]	Tumor to normal tissue ratio, gut [11]	Tumor to normal tissue ratio, heart [11]	Tumor to normal tissue ratio, kidneys [11]	Tumor to normal tissue ratio, liver [11]	Tumor to normal tissue ratio, lung [11]	Tumor to normal tissue ratio, muscle [11]	Tumor to normal tissue ratio, spleen [11]	Tumor to normal tissue ratio, stomach [11]	blood, % of injected dose per gram of tissue [11]	bone, % of injected dose per gram of tissue [11]	gut, % of injected dose per gram of tissue [11]	heart, % of injected dose per gram of tissue [11]	kidneys, % of injected dose per gram of tissue [11]	liver, % of injected dose per gram of tissue [11]	lung, % of injected dose per gram of tissue [11]	muscle, % of injected dose per gram of tissue [11]	further results
Au11 [P(C6 H4 CONHR)3 ]7^3+ where 20 R groups are CH3 and one is (CH2)3 N(CO2)(CH2)	–	–	–	–	–	–	–	–	–	–	–	–	–	–	–	–	–	–	–	–	stability at 100° C. [1]: perfectly stable; blood, % of the injected amount [2, 16]: 2.8%; bone, % of the injected amount [2, 16]: 2.5%; carcass, % of the injected amount [2, 16]: 13.7%; gut and feces, % of the injected amount [2, 16]: 3.3%; kidney, % of the injected amount [2, 16]: 5.1%; liver, % of the injected amount [2, 16]: 19.3%; spleen, % of the injected amount [2, 16]: 0.4%; stomach, % of the injected amount [2, 16]: 0.4%; clusters excreted ([2]; after 24 hours, tail vein): 56%; death or unusual reaction during or following injection [3]: no mice died or reacted unusually; % bound to control cells (melanoma) [4]: 0.51 ± 0.06%; % bound to tumor cells (human colon carcinoma) [5]: 0.54 ± 0.04%; clusters excreted [6]: 44%
F(ab')2 -Au11: F(ab')2 -Au11 conjugate of 17-1A mouse monoclonal antibody specific for human colorectal tumors (conjugate, chains of the INN, looked up, F(ab')2 undecagold cluster label, F(ab')2 -Au11 conjugate of 17-1A mouse monoclonal antibody specific for human colorectal tumors) VH: QVQLQQSGAELVRPGTSVKVSCKASGYAFTNYLIEWVKQRPGQGLEWIGVINPGSGGTNYNEKFKGKATLTADKSSSTAYMQLSSLTSDDSAVYFCARDGPWFAYWGQGTLVTVSA VL: NIVMTQSPKSMSMSVGERVTLTCKASENVVTYVSWYQQKPEQSPKLLIYGASNRYTGVPDRFTGSGSATDFTLTISSVQAEDLADYHCGQGYSYPYTFGGGTKLEIK	0.30 ± 0.03	16.13 ± 0.02	1.5	3.5	5.3	3.4	0.1	0.8	1.8	8.6	1.3	9.1	5.6 ± 0.4 % of injected dose per gram of tissue	2.4 ± 0.2 % of injected dose per gram of tissue	1.6 ± 0.2 % of injected dose per gram of tissue	3.2 ± 0.4 % of injected dose per gram of tissue	117.0 ± 20 % of injected dose per gram of tissue	10.5 ± 0.4 % of injected dose per gram of tissue	4.6 ± 0.1 % of injected dose per gram of tissue	0.98 ± 0.08 % of injected dose per gram of tissue	radioactive gold on the non-tumor cells ([7]; WM164, text statement on Table 1, "or background for F(ab')2"): < 0.4%; binding to the tumor cells versus native unlabeled F(ab')2 [8]: virtually identical binding to the tumor cells as did native unlabeled F(ab')2; binding to the control cells [10]: no binding to the control cells; spleen, % of injected dose per gram of tissue [11]: 6.4 ± 0.8 % of injected dose per gram of tissue; stomach, % of injected dose per gram of tissue [11]: 0.93 ± 0.19 % of injected dose per gram of tissue; tumor, % of injected dose per gram of tissue [11]: 8.4 ± 0.6 % of injected dose per gram of tissue
Fab'-Au11: 17-1A monoclonal antibody Fab' fragment covalently coupled to the undecagold cluster (radioactive gold in Tables 1 and 2) (conjugate, chains of the INN, looked up, Fab' undecagold cluster label) VH: QVQLQQSGAELVRPGTSVKVSCKASGYAFTNYLIEWVKQRPGQGLEWIGVINPGSGGTNYNEKFKGKATLTADKSSSTAYMQLSSLTSDDSAVYFCARDGPWFAYWGQGTLVTVSA VL: NIVMTQSPKSMSMSVGERVTLTCKASENVVTYVSWYQQKPEQSPKLLIYGASNRYTGVPDRFTGSGSATDFTLTISSVQAEDLADYHCGQGYSYPYTFGGGTKLEIK	1.92 ± 0.17	7.80 ± 0.52	1.9	6.6	5.	3.7	0.06	1.0	2.5	13.2	2.3	11.2	3.4 ± 0.3 % of injected dose per gram of tissue	0.97 ± 0.02 % of injected dose per gram of tissue	1.3 ± 0.1 % of injected dose per gram of tissue	1.7 ± 0.1 % of injected dose per gram of tissue	103.0 ± 32 % of injected dose per gram of tissue	5.6 ± 0.5 % of injected dose per gram of tissue	2.5 ± 0.04 % of injected dose per gram of tissue	0.48 ± 0.06 % of injected dose per gram of tissue	antibody activity and specificity ([12]; one hour incubation, titer curve): antibody activity and specificity were preserved; specificity for the tumor ([12]; preliminary in vitro testing, 17-1A): retains its specificity for the tumor; localization of radioactive gold on tumor cells ([9]; LS180 cells, in words): localized completely on the tumor cells; spleen, % of injected dose per gram of tissue [11]: 2.8 ± 0.4 % of injected dose per gram of tissue; stomach, % of injected dose per gram of tissue [11]: 0.57 ± 0.14 % of injected dose per gram of tissue; tumor, % of injected dose per gram of tissue [11]: 6.4 ± 1.1 % of injected dose per gram of tissue; binding to a control melanoma [13]: does not bind to a control melanoma
undecagold cluster-labeled 17-1A monoclonal antibody: undecagold cluster-labeled 17-1A monoclonal antibody (conjugate, chains of the INN, looked up, undecagold cluster label) VH: QVQLQQSGAELVRPGTSVKVSCKASGYAFTNYLIEWVKQRPGQGLEWIGVINPGSGGTNYNEKFKGKATLTADKSSSTAYMQLSSLTSDDSAVYFCARDGPWFAYWGQGTLVTVSA VL: NIVMTQSPKSMSMSVGERVTLTCKASENVVTYVSWYQQKPEQSPKLLIYGASNRYTGVPDRFTGSGSATDFTLTISSVQAEDLADYHCGQGYSYPYTFGGGTKLEIK	–	–	–	–	–	–	–	–	–	–	–	–	–	–	–	–	–	–	–	–	staining of control cells after silver developer [14]: clear and showed virtually no staining; staining of cells after silver developer [15]: became brown in color, easily identifiable in the light microscope
